Measurements published in article PMC2881153.
Like-named read-outs stand apart in the source and are kept apart here.

Experiments:
[1] = molecular target: T1, Fl-Imp3p;Rh-Imp4p (Saccharomyces cerevisiae;Saccharomyces …, UniProt P32899;P53941 1-183;1-290, |); experiment: ssFRET
T1 sequence 1: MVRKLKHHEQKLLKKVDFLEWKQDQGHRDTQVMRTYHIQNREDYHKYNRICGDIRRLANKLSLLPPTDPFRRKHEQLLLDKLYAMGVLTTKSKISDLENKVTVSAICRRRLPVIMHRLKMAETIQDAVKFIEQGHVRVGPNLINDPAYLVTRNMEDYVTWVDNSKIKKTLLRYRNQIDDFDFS
T1 sequence 2: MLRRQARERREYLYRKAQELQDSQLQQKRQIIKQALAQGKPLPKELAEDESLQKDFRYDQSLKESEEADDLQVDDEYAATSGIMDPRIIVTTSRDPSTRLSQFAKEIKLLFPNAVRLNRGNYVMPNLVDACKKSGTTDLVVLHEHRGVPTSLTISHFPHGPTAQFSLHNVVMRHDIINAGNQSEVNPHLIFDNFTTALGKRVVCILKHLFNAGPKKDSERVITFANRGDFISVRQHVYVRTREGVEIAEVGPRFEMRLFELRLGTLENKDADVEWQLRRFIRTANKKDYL

[2] = molecular target: T2, Imp3p (Saccharomyces cerevisiae, UniProt P32899 1-183); experiment: trFRET
T2 sequence: T1 sequence 1

[3] = molecular target: T3, Imp3p;Imp4p (Saccharomyces cerevisiae;Saccharomyces …, UniProt P32899;P53941 1-183;1-290, |); experiment: trFRET
T3 sequence 1: T1 sequence 1
T3 sequence 2: T1 sequence 2

[4] = molecular target: T3, Imp3p;Imp4p; experiment: trFRET; remark: listed apart in the source

GGACGUACUUCAUAGGAUCAUUUCUAUAGGAAUCGUCACUCUUUGACU (structured_RNA) [U3 MINI]: binds [1].

GGACGUACUUCAUAGGAUCAUUUCUAUAGGAAUCGUCACUCUUUGACU (structured_RNA) [Fl-U3 MINI-Rh]: binds [2]; binds [3].

B1: Fl-U3 MINI-Rh with 18S (dsRNA)
RNA 1: GGACGUACUUCAUAGGAUCAUUUCUAUAGGAAUCGUCACUCUUUGACU
RNA 2: GGUUGAUCCUGCCAGUA
B1: binds [4].
